Measured values published in doi:10.1101/2021.01.08.425619 (bioRxiv, 2021).
Like-named read-outs stand apart in the source and are kept apart here. Each block holds one binder with its values, some of them ahead of it.

B1: Panx[263-541], subunit of recombinant SFiNX (domain or fragment)
chain: ASSQNESSKERKLRDTELDYVPVRPDEHFIRPIKFSNLIERRPPQVEFNTVNLSKADKRSLAVARAELVLEQIQQKANKEEPPEFHMVDTICKLPVNESFRNQDCFENPSPICNNMNVVYKFNSTPGTRIDLSKWGLETVPEATKRLLRLLGIDVARLKELQSTVKPSQRILKLKKEQLEQGLAPTEEQETATLYKNAATQTERRTATRDAGTQVRLESKLNGAFWQNPHFDPMNLTQHQSNVMLALQEIYQTLPSATMAVKLSRALAPALAIIKGRQP
B2: Drosophila melanogaster LC8 (residues 1-89), co-expressed with Panx peptides (natural protein)
chain: MSDRKAVIKNADMSEEMQQDAVDCATQALEKYNIEKDIAAYIKKEFDKKYNPTWHCIVGRNFGSYVTHETRHFIYFYLGQVAILLFKSG
B3: His6-LC8, subunit of recombinant SFiNX (natural protein)
chain: B2 chain
B4: recombinant SFiNX consisting of Panx[263-541], Nxf2[541-841], Nxt1, and LC8 (complex)
chain 1: B1 chain
chain 2: LPSEYVRAVKEVFPQLTTLDGVDLQTNPGQSLQKNFLCDTGAYELVGAFLENYLREFENDEFRHNLYKYYSENSIFTLTCNYNVVQNHQTPKILQRLSKYNRHARNLRNKDYSKASDGVFFGCTYIVEILLQLPRVTHDFHSLQTDVMHYNGKGAVIYVAGLLRDEPPSTRNGHGSKTDIGGVLLGFSRQFVVTFDEANLGLGKRARRLKIANERLHITNPSKTAIRNAFSVNFPDPSERQAEEDSLDVKDHKLLLFQEVTGLISTWVTSIVEEADWDFERALKLFIQKNADHEIPDLAFA
chain 3: […]
chain 4: B2 chain
B5: Nxf2[541-841], subunit of recombinant SFiNX (domain or fragment)
chain: B4 chain 2

How the values were obtained:
[1] = molecular target: B2; experiment: SEC-MALS
[2] = molecular target: Drosophila melanogaster LC8 (residues 1-89), expressed in isolation for ITC (Drosophila melanogaster, UniProt Q24117 1-89); experiment: ITC
[3] = molecular target: B5; experiment: SEC-MALS
SEC-MALS [4] = molecular target: the molecule itself; experiment: SEC-MALS
[5] = molecular target: B1; experiment: SEC-MALS
SEC-MALS [6] = molecular target: the molecule itself; experiment: SEC-MALS; remark: listed apart in the source
[7] = molecular target: Nxt1, subunit of recombinant SFiNX (Drosophila, UniProt Q9V3H8 1-133); experiment: SEC-MALS

stoichiometry N [1]: 2 Panx peptides per one LC8 homodimer
Kd [2]: ~75 nM
Binder: TLYKNAATQTER [Panx peptide residues 455-466 (Panx1), LC8 binding site #1]

Binder: B1
binding result [3]: binds

stoichiometry N [1]: 2 Panx peptides per two LC8 homodimers
Binder: TLYKNAATQTERRTATRDAGTQVRLE [Panx peptide residues 455-480 (Panx1+2), both LC8 binding sites]

Binder: B2
stoichiometry N (SEC-MALS [4]): 2

Binder: B3
binding result [5]: binds

Binder: B4
stoichiometry N (SEC-MALS [6]): 2

stoichiometry N [1]: 2 Panx peptides per one LC8 homodimer
Kd [2]: ~140 nM
Binder: RTATRDAGTQVRLE [Panx peptide residues 467-480 (Panx2), LC8 binding site #2]

Binder: B5
binding result [7]: binds
